Measured values reported in PMC3337772.

Substrate: NCCc1ccc(O)c(O)c1
Test: [3H]DA uptake kinetics
Assay type: cell-based, Rattus norvegicus

B1: dopamine transporter (DAT; rDAT) (Rattus norvegicus) (protein)
chain: MSKSKCSVGPMSSVVAPAKESNAVGPREVELILVKEQNGVQLTNSTLINPPQTPVEAQERETWSKKIDFLLSVIGFAVDLANVWRFPYLCYKNGGGAFLVPYLLFMVIAGMPLFYMELALGQFNREGAAGVWKICPVLKGVGFTVILISFYVGFFYNVIIAWALHYFFSSFTMDLPWIHCNNTWNSPNCSDAHASNSSDGLGLNDTFGTTPAAEYFERGVLHLHQSRGIDDLGPPRWQLTACLVLVIVLLYFSLWKGVKTSGKVVWITATMPYVVLTALLLRGVTLPGAMDGIRAYLSVDFYRLCEASVWIDAATQVCFSLGVGFGVLIAFSSYNKFTNNCYRDAIITTSINSLTSFSSGFVVFSFLGYMAQKHNVPIRDVATDGPGLIFIIYPEAIATLPLSSAWAAVFFLMLLTLGIDSAMGGMESVITGLVDEFQLLHRHRELFTLGIVLATFLLSLFCVTNGGIYVFTLLDHFAAGTSILFGVLIEAIGVAWFYGVQQFSDDIKQMTGQRPNLYWRLCWKLVSPCFLLYVVVVSIVTFRPPHYGAYIFPDWANALGWIIATSSMAMVPIYATYKFCSLPGSFREKLAYAITPEKDHQLVDRGEVRQFTLRHWLLL
B1 was tested, and the Km was 1.50 ± 0.10 µM.
